Source: the supplement of paper PMC10724198
± gives the standard deviation of the averaged measurements.

Test system: Saccharomyces cerevisiae
Experiment: protein stability index of tFT-peptide fusion (C-terminal peptide) (PSI (0-1 scale)); higher = more stable (slower turnover)
Settings: genetic background: wild type; temperature: 30 C
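Note: PSI is a weighted mean of sequencing reads over stability bins, variants kept only with over 10 reads, mCherry proximal and sfGFP distal, peptide attached via GGGS linker.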

Sequence | protein stability index
KQNRKEKVQRNR | 0.709 ± 0.054
KQQTPVQNKDLR | 0.71399 ± 0.0006
KQSNRYPCIHRS | 0.705 ± 0.048
KRCTFCGGGWVM | 0.7276 ± 0.00082
KREGEGLDWGEV | 0.7089 ± 0.0014
KREQGPRPRACR | 0.617 ± 0.036
KRGKRTEKDKET | 0.652 ± 0.071
KRKEDSILVISC | 0.662 ± 0.029
KRKERKGEKKRR | 0.685 ± 0.033
KRKKKENNKIKI | 0.756 ± 0.1
KRKKKRKQKGKQ | 0.722 ± 0.036
KRKKNKKRKQNE | 0.656 ± 0.026
KRKKTRNKNGKG | 0.627 ± 0.073
KRKPEHKSAAEE | 0.669 ± 0.038
KRKRAVQYLMQP | 0.615 ± 0.042
KRLKKKKQSGGK | 0.71 ± 0.03
KRRSQKKKRIMD | 0.6968 ± 0.0043
KRTKKKTKDERK | 0.644 ± 0.044
KRYSVPLTTVVD | 0.7165 ± 0.0035
KSSEIKEKKTKK | 0.7151 ± 0.0011
KSSNIINQKRIT | 0.66 ± 0.056
KSSTLRKIKRGK | 0.716 ± 0.03
KTCENKKKALRR | 0.6923 ± 0.0016
KTGRPSRRGSTT | 0.704 ± 0.036
KTGVRAVSLTGS | 0.696 ± 0.038
KTHKKKKKNKNF | 0.525 ± 0.012

Sequence | protein stability index
KTINEKKKRIEQ | 0.713 ± 0.055
KTIQDNNYDGIW | 0.766 ± 0.25
KTKKNKKKKINK | 0.692 ± 0.075
KTKRKKKRRRRE | 0.705 ± 0.067
KTQKKPNNRKNI | 0.682 ± 0.04
KTRHVGSDNQGL | 0.663 ± 0.043
KVAECGYGTSWV | 0.724 ± 0.013
KVCESRQVEYFR | 0.634 ± 0.088
KVCVLSPDSCGL | 0.741 ± 0.033
KVGLGVNSLFTG | 0.745 ± 0.18
KVKGKSISKINH | 0.645 ± 0.055
KVLTTISRAINK | 0.604 ± 0.012
KVRDTFRDFGLM | 0.673 ± 0.063
KYMPKDSLKNTI | 0.622 ± 0.01
KYPRPNSYFVPI | 0.717 ± 0.023
LAARTKAQARHN | 0.652 ± 0.04
LACVYEVIPGPS | 0.677 ± 0.047
LACWAGVLGWGG | 0.732 ± 0.022
LAESTSYNQRRP | 0.701 ± 0.06
LAGGRCGCGTHD | 0.684 ± 0.042
LAGLAVASVRRE | 0.683 ± 0.013
LAGRPSTTRAFR | 0.59 ± 0.027
LALFPDPSSIIL | 0.7765 ± 0.0075
LALHWVESRFKH | 0.71 ± 0.06
LALSVRFFSVLF | 0.587 ± 0.036
LALVGGACVGRV | 0.65 ± 0.044

Sequence | protein stability index
LANGACLLRLNF | 0.54 ± 0.017
LAPLALPLPPPT | 0.832 ± 0.18
LAPPPLGNSSRP | 0.704 ± 0.049
LARGGASIGGES | 0.701 ± 0.015
LARPPPPSNHSP | 0.695 ± 0.0094
LASCAFQFLASC | 0.691 ± 0.098
LASGSVSCFWSG | 0.71 ± 0.021
LASSGQSWLVVF | 0.563 ± 0.011
LASSSPPTRPPH | 0.702 ± 0.048
LASVSNFLASGK | 0.72 ± 0.058
LAVNGEIERVCD | 0.636 ± 0.11
LAWALGESSPIG | 0.737 ± 0.044
LAYCGSTYVSRH | 0.699 ± 0.022
LCANDRGVAALA | 0.683 ± 0.046
LCCSFGLFTLFW | 0.711 ± 0.042
LCHCLSLLFSFL | 0.581 ± 0.015
LCLFPLVTPPPA | 0.607 ± 0.029
LCLGFDGAFPLF | 0.725 ± 0.014
LCPTGAPLYFSL | 0.64 ± 0.093
LCRSSIILTLLL | 0.586 ± 0.057
LCSPGPLPPSYF | 0.705 ± 0.045
LCVGVGAAIRLW | 0.598 ± 0.039
LDCVPRTHCILS | 0.664 ± 0.074
LDEFFIKTSANM | 0.652 ± 0.088
LDGSQDGANRRT | 0.728 ± 0.095
LDLCTVIRFVGI | 0.723 ± 0.029

Sequence | protein stability index
LDRDTSCYMLDF | 0.718 ± 0.03
LDSGQALLSIPI | 0.643 ± 0.12
LEGEESISQMNE | 0.664 ± 0.043
LEQAGFWWPKGL | 0.764 ± 0.0087
LEVLGVPQLIRS | 0.534 ± 0.07
LEWHRPLCPPLF | 0.734 ± 0.075
LFCGALSTRLAR | 0.751 ± 0.081
LFCVARARLGCW | 0.768 ± 0.026
LFERSFSSHPVL | 0.769 ± 0.13
LFFLPSVLPFHC | 0.636 ± 0.025
LFFSLLCSSFGS | 0.708 ± 0.022
LFGFSPAPVSFG | 0.733 ± 0.073
LFHPPVCPVFLD | 0.758 ± 0.037
LFIGFFGIECFI | 0.5798 ± 0.0037
LFILSLGEYSLP | 0.673 ± 0.066
LFKRTWRVEGFG | 0.705 ± 0.094
LFLDSTSTLPAP | 0.662 ± 0.028
LFPFPSPLPPPL | 0.766 ± 0.0092
LFPPFPPFSFSP | 0.798 ± 0.045
LFPPRVSLPSHT | 0.663 ± 0.13
LFPSPFVASFPP | 0.765 ± 0.055
LFSCLHCLFSCQ | 0.616 ± 0.091
LFSDAWVLTDWW | 0.753 ± 0.044
LFSDLCRVAWSL | 0.615 ± 0.021
LFSPTFPTIYYA | 0.759 ± 0.059
LFSSFFSAAFAS | 0.677 ± 0.064

Sequence | protein stability index
LFTGPPPSPPPP | 0.699 ± 0.034
LFTLSGAPLALP | 0.729 ± 0.015
LFVCVFRPWLGG | 0.766 ± 0.09
LFVGSSPPPSPP | 0.643 ± 0.046
LGACAGSGFKGV | 0.713 ± 0.033
LGCCVFGFVFPS | 0.672 ± 0.047
LGCDDWIDWSRG | 0.694 ± 0.054
LGFFGGGRWAGG | 0.717 ± 0.025
LGGGAGKRVCEG | 0.685 ± 0.014
LGGGGGGGGRLR | 0.618 ± 0.0091
LGGGGGLTAAGV | 0.743 ± 0.016
LGGGVLDVRGQL | 0.711 ± 0.011
LGGHLFPLGPRR | 0.664 ± 0.007
LGGVKATGLGQL | 0.686 ± 0.04
LGGVLVGDWVGI | 0.7125 ± 0.0042
LGGVRWNPGCRG | 0.661 ± 0.047
LGLGIWDCFCVL | 0.685 ± 0.018
LGLGPKNLSYSE | 0.676 ± 0.043
LGLLVLARFSPL | 0.7076 ± 0.0053
LGRGGVAWGAWW | 0.836 ± 0.11
LGSIKCKLSSGI | 0.666 ± 0.052
LGSLSPRLPSLR | 0.672 ± 0.091
LGTGKSGLCVWE | 0.665 ± 0.012
LGVCVGFRLLWV | 0.579 ± 0.026
LGVFNRMKHSKH | 0.6702 ± 0.0029
LGVSYAPLPFLS | 0.65 ± 0.03

Sequence | protein stability index
LGWGRWFWGVRG | 0.653 ± 0.026
LGYSYHGVASRG | 0.698 ± 0.013
LHCKRPTPLTDS | 0.657 ± 0.019
LHGHFIRLIRIG | 0.477 ± 0.054
LHLGHAGQACPA | 0.6277 ± 0.0022
LHLPLPPLQLSL | 0.697 ± 0.0072
LHPGPPASPPPL | 0.7127 ± 0.0053
LHPRCVLPHFRV | 0.627 ± 0.032
LICLTIHNEGSK | 0.583 ± 0.017
LIDKPNNGVWIS | 0.587 ± 0.042
LIDLLRQVNVLR | 0.649 ± 0.0096
LIENVGDLETSR | 0.665 ± 0.059
LIGALSDCGFLG | 0.683 ± 0.031
LIHSSCSCPWCD | 0.666 ± 0.011
LIILKNKRKNKI | 0.704 ± 0.04
LILFQYFYLPMT | 0.517 ± 0.044
LIPALPPPLPPP | 0.673 ± 0.0056
LIPCFSPLPSPF | 0.721 ± 0.018
LIPFAFVHPVFL | 0.62 ± 0.048
LIQKQTGKKKKP | 0.7279 ± 0.0051
LIRGVVVGLDGD | 0.685 ± 0.021
LIRIHPNGPKFM | 0.708 ± 0.083
LIRYVPFSYVLV | 0.599 ± 0.007
LISLGTYLINGF | 0.6441 ± 0.0051
LISLSHLSANQM | 0.665 ± 0.012
LISNEGASRWDL | 0.625 ± 0.018

Sequence | protein stability index
LISRQFPNHGWT | 0.675 ± 0.044
LITDSQWLSSLS | 0.731 ± 0.02
LITGRGFGFVVV | 0.674 ± 0.024
LIWRQEDGGPMT | 0.747 ± 0.01
LKGSVGGVCHTC | 0.709 ± 0.032
LKKIEPRKNDKI | 0.719 ± 0.025
LKKKSHRIKRSI | 0.58471 ± 0.00035
LKMRIYEKNGKE | 0.669 ± 0.049
LLCIPFPTRSLI | 0.803 ± 0.28
LLEGSFFCGNSS | 0.726 ± 0.037
LLFLLGTLYHPY | 0.635 ± 0.11
LLFTFFFLLLFS | 0.527 ± 0.23
LLFTFLPFRTVR | 0.709 ± 0.044
LLGASIIGQFYL | 0.758 ± 0.011
LLGDPGDFFPAS | 0.713 ± 0.028
LLGLWSFLIPPS | 0.677 ± 0.0023
LLGRIASCKIWL | 0.657 ± 0.019
LLHFSSPPLLPV | 0.634 ± 0.055
LLHVPIVFPRLI | 0.62 ± 0.043
LLHWGRWSRGRR | 0.694 ± 0.071
LLIHLKDFYCFV | 0.855 ± 0.019
LLLFPSSFIFFY | 0.629 ± 0.055
LLLGSFFNKPTT | 0.678 ± 0.035
LLLLFWSGSCGC | 0.648 ± 0.013
LLLPIIPRKLDL | 0.673 ± 0.022
LLLPPLPPLSLS | 0.7135 ± 0.0058

Sequence | protein stability index
LLLPPLSSSPPP | 0.7111 ± 0.0032
LLLSPAFFSCFL | 0.638 ± 0.095
LLMPRTKEEYDN | 0.601 ± 0.24
LLNLQEEADLPS | 0.724 ± 0.035
LLPALPLPLSLT | 0.64 ± 0.013
LLPLLYKWLGLR | 0.681 ± 0.025
LLPLPPLLRLPL | 0.5803 ± 0.001
LLPLPPPPLFLP | 0.705 ± 0.011
LLPPFPPSSPAF | 0.708 ± 0.036
LLPPLPLSPSAP | 0.685 ± 0.096
LLPPPPPPTLYP | 0.699 ± 0.016
LLPPPPSPPTPS | 0.686 ± 0.035
LLPSPSPASSPS | 0.74 ± 0.1
LLPSSPRTFPLL | 0.6731 ± 0.0008
LLPVFFPCFPLP | 0.696 ± 0.069
LLRFVGVRVRGA | 0.646 ± 0.094
LLRLMSPTPFTP | 0.703 ± 0.037
LLRLPPPSPRYH | 0.782 ± 0.019
LLRPLRRLDVSW | 0.632 ± 0.0065
LLRPPARPPHPR | 0.746 ± 0.008
